The results in this text go back to publication PMC4878094.

Holding throughout (test): single-filament TIRF microscopy of microtubule growth
Test [1] addresses recombinant α/βIIB tubulin heterodimer (human) (UniProt P68363).
Test [2] concerns the target recombinant α/βIII-tail-IIB tubulin heterodimer (human) (UniProt P68363).
The target in test [3] is recombinant α/βIIB-tail-III tubulin heterodimer (human) (UniProt P68363).

Regarding “recombinant α/βIIB tubulin heterodimer (from UniProt P68363-1 1-451; Q9BVA1 1-445) (complex)”, in test [1], the koff was 2.6 s⁻¹ and the kon worked out at 1.9e+06 M⁻¹ s⁻¹.

Turning to “recombinant α/βIII-tail-IIB tubulin heterodimer (from UniProt P68363-1 1-451; Q13509 1-427; Q9BVA1 428-445) (complex)”, in test [2], the off-rate constant (koff) is 2.4 s⁻¹ and the kon was 1.8e+06 M⁻¹ s⁻¹.

“recombinant α/βIIB-tail-III tubulin heterodimer (from UniProt P68363-1 1-451; Q9BVA1 1-427; Q13509 428-450) (complex)”: in test [3], the koff was 5.5 s⁻¹ and the kon stood at 2e+06 M⁻¹ s⁻¹.

By koff is commonly meant a measure of how fast the partners let go of each other. Broadly, the kon is the rate constant with which the complex forms.
